Data taken from article PMC8401098, “The Uncommon Active Site of D-Amino Acid Transaminase from Haliscomenobacter hydrossis: Biochemical and Structural Insights into the New Enzyme” (Molecules, 2021).
Numbering of substitutions follows the chain as printed. In names and notes the source's numbering stands.

Assays:
[1] = target: T1, Halhy (D-amino acid transaminase from Haliscomenobacter hydrossis) (Haliscomenobacter hydrossis, UniProt F4KWH0); test: X-ray crystal structure, […] Å; type: binding; conditions: covalent; Schiff base with K143; holo form, pH 4.8
T1 construct: gene Halhy_2446; N-terminal His6-TEV tag cut off with TEV protease; E. coli Rosetta(DE3) pLysS; codon-optimised synthetic gene; homodimer (about 62 kDa by gel filtration)
T1 sequence (F4KWH0 entry or part of it): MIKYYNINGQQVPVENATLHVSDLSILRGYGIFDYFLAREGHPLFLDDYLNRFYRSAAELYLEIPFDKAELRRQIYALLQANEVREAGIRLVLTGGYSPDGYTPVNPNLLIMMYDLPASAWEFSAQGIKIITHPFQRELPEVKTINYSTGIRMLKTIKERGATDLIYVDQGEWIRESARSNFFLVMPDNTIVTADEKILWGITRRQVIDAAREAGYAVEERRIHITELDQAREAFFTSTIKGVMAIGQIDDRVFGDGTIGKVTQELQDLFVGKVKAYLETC

purified protein [2] = substrate: O=C(O)CCC(=O)C(=O)O; test: purified protein; type: biochemical, Haliscomenobacter hydrossis; conditions: D-alanine 40 mM, 50 mM K-phosphate pH 8, 30 µM PLP
[3] = substrate: CC(C)C[C@@H](N)C(=O)O; test: steady-state kinetics of overall transamination (HPLC of 4-methyl-2-oxovalerate); type: biochemical, Haliscomenobacter hydrossis; conditions: α-ketoglutarate 5 mM, 50 mM K-phosphate pH 8, 30 µM PLP, 40 °C
Source text: steady-state kinetics of overall transamination (HPLC of 4-methyl-2-oxovalerate) on Halhy (D-amino acid transaminase from Haliscomenobacter hydrossis)

[4] = substrate: CC(C)CC(=O)C(=O)O; test: steady-state kinetics of overall transamination; type: biochemical, Haliscomenobacter hydrossis; conditions: D-alanine 40 mM, 50 mM K-phosphate pH 8, 30 µM PLP, 40 °C
Source text: steady-state kinetics of overall transamination on Halhy (D-amino acid transaminase from Haliscomenobacter hydrossis)

purified protein [5] = substrate: C[C@@H](N)C(=O)O; test: purified protein; conditions: α-ketoglutarate 5 mM, 50 mM K-phosphate pH 8, 30 µM PLP, 40 °C
purified protein [6] = substrate: N[C@H](CCC(=O)O)C(=O)O; test: purified protein; type: biochemical, Haliscomenobacter hydrossis; conditions: pyruvate 2.5 mM, 50 mM K-phosphate pH 8, 30 µM PLP, 40 °C
purified protein [7] = substrate: CC(=O)C(=O)O; test: purified protein; type: biochemical, Haliscomenobacter hydrossis; conditions: D-glutamate 4 mM, 50 mM K-phosphate pH 8, 30 µM PLP, 40 °C

Which “X-ray crystal structure, 2.0 Å” value [1] does the source give for Cc1ncc(COP(=O)(O)O)c(C=O)c1O [pyridoxal-5'-phosphate] here?
The value was “structure of WT Halhy in the holo form with a covalently bound PLP was determined”.

B1: Halhy (D-amino acid transaminase from Haliscomenobacter hydrossis) (Haliscomenobacter hydrossis DSM 1100; R179G) (protein)
chain: MIKYYNINGQQVPVENATLHVSDLSILRGYGIFDYFLAREGHPLFLDDYLNRFYRSAAELYLEIPFDKAELRRQIYALLQANEVREAGIRLVLTGGYSPDGYTPVNPNLLIMMYDLPASAWEFSAQGIKIITHPFQRELPEVKTINYSTGIRMLKTIKERGATDLIYVDQGEWIRESAGSNFFLVMPDNTIVTADEKILWGITRRQVIDAAREAGYAVEERRIHITELDQAREAFFTSTIKGVMAIGQIDDRVFGDGTIGKVTQELQDLFVGKVKAYLETC
notes: N-terminal His6-TEV tag cut off with TEV protease; E. coli Rosetta(DE3) pLysS; codon-optimised synthetic gene; homodimer (about 62 kDa by gel filtration)
For B1, which Km (purified protein [2]; 25 °C) is on record?
Its Km is 8.1 ± 0.8 mM.

And the kcat (purified protein [2]; 25 °C)?
The kcat was 8.6 ± 0.6 s⁻¹.

What about the kcat/Km (purified protein [2]; 25 °C) of the same molecule?
Its kcat/Km is 1100 M⁻¹ s⁻¹.

B2: Halhy (D-amino acid transaminase from Haliscomenobacter hydrossis) (Haliscomenobacter hydrossis DSM 1100) (protein)
chain: B1 chain with G179R
notes: as for B1
Which Km [3] does the source give for B2 here?
The Km was 83 ± 8 mM.

What about the kcat [3] of the same molecule?
Its kcat is 10.5 ± 0.4 s⁻¹.

What about the kcat/Km [3] of the same molecule?
Its kcat/Km is 130 M⁻¹ s⁻¹.

What about the Km [4] of the same molecule?
Its Km is 70 ± 6 mM.

What about the kcat [4] of the same molecule?
The kcat was 4.2 ± 0.1 s⁻¹.

What about the kcat/Km [4] of the same molecule?
Its kcat/Km is 60 M⁻¹ s⁻¹.

What about the Km (purified protein [5]) of the same molecule?
The Km was 23 ± 1 mM.

What about the kcat (purified protein [5]) of the same molecule?
The kcat was 146 ± 4 s⁻¹.

What about the kcat/Km (purified protein [5]) of the same molecule?
Its kcat/Km is 6300 M⁻¹ s⁻¹.

What about the Km (purified protein [6]) of the same molecule?
The Km was 10.3 ± 0.7 mM.

What about the kcat (purified protein [6]) of the same molecule?
The kcat was 215 ± 6 s⁻¹.

And the kcat/Km (purified protein [6])?
Its kcat/Km is 21000 ± 2000 M⁻¹ s⁻¹.

And the Km (purified protein [2]; 40 °C)?
The Km was 2.3 ± 0.2 mM.

And the kcat (purified protein [2]; 40 °C)?
Its kcat is 146 ± 4 s⁻¹.

What about the kcat/Km (purified protein [2]; 40 °C) of the same molecule?
The kcat/Km was 63000 ± 7000 M⁻¹ s⁻¹.

What about the Km (purified protein [7]) of the same molecule?
Its Km is 2.1 ± 0.1 mM.

And the kcat (purified protein [7])?
The kcat was 215 ± 6 s⁻¹.

What about the kcat/Km (purified protein [7]) of the same molecule?
Its kcat/Km is 103000 ± 8000 M⁻¹ s⁻¹.
